These results are taken from patent publication US20020192704A1.

The assay addresses IRR-Fc fusion protein (extracellular region of mouse insulin receptor-related receptor, 1-920th residues, fused to the H-chain C (constant) region (Fc region) of human IgG1) (mouse; human) (UniProt Q9WTL4). Briefly: SPR (BIACORE 2000), IRR-Fc immobilised on a CM5 chip, IR-Fc flow cell subtracted; about 10 ug of specimen in 200 ul of buffer. (In general: SPR reads the build-up and loss of mass on a sensor chip optically.)

IRR-Fc fusion protein (extracellular region of mouse insulin receptor-related receptor, 1-920th residues, fused to the H-chain C (constant) region (Fc region) of human IgG1) (mouse; human), sequence (Q9WTL4 27-920 limits assumed, form in doubt): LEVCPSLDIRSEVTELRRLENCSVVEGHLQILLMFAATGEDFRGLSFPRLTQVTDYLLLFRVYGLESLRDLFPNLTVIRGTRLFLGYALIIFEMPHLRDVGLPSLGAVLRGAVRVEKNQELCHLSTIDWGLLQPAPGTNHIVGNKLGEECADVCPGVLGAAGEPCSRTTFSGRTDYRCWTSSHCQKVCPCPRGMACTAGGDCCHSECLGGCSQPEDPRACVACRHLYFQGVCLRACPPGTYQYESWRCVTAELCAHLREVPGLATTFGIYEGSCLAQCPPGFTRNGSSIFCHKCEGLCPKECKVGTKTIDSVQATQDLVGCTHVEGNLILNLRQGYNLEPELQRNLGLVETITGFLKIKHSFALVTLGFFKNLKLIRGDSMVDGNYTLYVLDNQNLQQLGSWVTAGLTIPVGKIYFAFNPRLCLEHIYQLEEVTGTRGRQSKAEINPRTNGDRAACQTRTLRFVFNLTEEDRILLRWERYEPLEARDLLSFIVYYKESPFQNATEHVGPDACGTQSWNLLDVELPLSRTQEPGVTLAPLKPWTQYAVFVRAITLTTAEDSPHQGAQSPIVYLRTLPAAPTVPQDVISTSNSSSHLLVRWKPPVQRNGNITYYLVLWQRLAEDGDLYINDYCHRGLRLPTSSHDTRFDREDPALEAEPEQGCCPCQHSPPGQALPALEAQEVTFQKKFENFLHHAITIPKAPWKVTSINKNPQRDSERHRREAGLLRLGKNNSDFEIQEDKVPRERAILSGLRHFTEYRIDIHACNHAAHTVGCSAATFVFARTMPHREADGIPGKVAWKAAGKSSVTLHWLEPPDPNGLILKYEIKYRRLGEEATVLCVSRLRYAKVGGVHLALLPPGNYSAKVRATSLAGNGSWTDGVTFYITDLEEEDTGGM

In the case of “Peak 1 of the re-purified IRR ligand from rat C6 glioma cell culture supernatant (rat epithelin/granulin precursor fragments, SEQ ID NOS: 5 and 6) (from UniProt P23785 438-494)”, the binding activity (RU; IRR-Fc binding value minus IR-Fc binding value) worked out at 13 RU.
For the substance “Peak 2 of the re-purified IRR ligand from rat C6 glioma cell culture supernatant (rat epithelin/granulin precursor fragment, SEQ ID NO: 4) (from UniProt P23785 439-494)”, the binding activity (RU; IRR-Fc binding value minus IR-Fc binding value) is 21 RU.
